Assay results reported in paper PMC1885664 (Nucleic Acids Research, 2007).
Numbering of substitutions follows the chain as printed. In names and notes the source's numbering stands.

B1: P. aeruginosa RdgC K146A mutant (natural protein, Pseudomonas aeruginosa PAO1, UniProt Q9HYX7 1-306, looked up)
chain: MWFRNLLVYRLTQDLQLDADSLEKALGEKSARPCASQELTTYGFTAPFGKGPDAPLVHVSQDFFLISARKEERILPGSVVRDALKEKVDEIEAQQMRKVYKKERDQLKDEIVQTLLPRAFIRRSSTFAAIAPSLGLILVDSASAKAAEDLLSTLREALGSLPVRPLSVKVAPTATLTDWVKTQEAAGDFHVLDECELRDTHEDGGVVRCKRQDLTSEEIQLHLTAGKLVTQLSLAWSDKLSFVLDDKLAVKRLRFEDLLQEQAEKDGGEDALGQLDASFTLMMLTFAEFLPALFEALGGEEIPQGV
B2: P. aeruginosa RdgC F120A mutant (natural protein, Pseudomonas aeruginosa PAO1, UniProt Q9HYX7 1-306, looked up)
chain: B1 chain with F120A, A146K
B3: P. aeruginosa RdgC R122D mutant (natural protein, Pseudomonas aeruginosa PAO1, UniProt Q9HYX7 1-306, looked up)
chain: B1 chain with R122D, A146K
B4: Pseudomonas aeruginosa RdgC (recombination-associated DNA-binding protein), wild type (natural protein, Pseudomonas aeruginosa PAO1, UniProt Q9HYX7 1-306, looked up)
chain: B1 chain with A146K
B5: P. aeruginosa RdgC R252A mutant (natural protein, Pseudomonas aeruginosa PAO1, UniProt Q9HYX7 1-306, looked up)
chain: B1 chain with A146K, R252A
B6: P. aeruginosa RdgC R198A mutant (natural protein, Pseudomonas aeruginosa PAO1, UniProt Q9HYX7 1-306, looked up)
chain: B1 chain with A146K, R198A
B7: P. aeruginosa RdgC R4A mutant (natural protein, Pseudomonas aeruginosa PAO1, UniProt Q9HYX7 1-306, looked up)
chain: B1 chain with R4A, A146K
B8: P. aeruginosa RdgC R211D mutant (natural protein, Pseudomonas aeruginosa PAO1, UniProt Q9HYX7 1-306, looked up)
chain: B1 chain with A146K, R211D
B9: P. aeruginosa RdgC K70D mutant (natural protein, Pseudomonas aeruginosa PAO1, UniProt Q9HYX7 1-306, looked up)
chain: B1 chain with K70D, A146K
B10: P. aeruginosa RdgC R81D mutant (natural protein, Pseudomonas aeruginosa PAO1, UniProt Q9HYX7 1-306, looked up)
chain: B1 chain with R81D, A146K
B11: P. aeruginosa RdgC R208A mutant (natural protein, Pseudomonas aeruginosa PAO1, UniProt Q9HYX7 1-306, looked up)
chain: B1 chain with A146K, R208A
B12: P. aeruginosa RdgC Q212A mutant (natural protein, Pseudomonas aeruginosa PAO1, UniProt Q9HYX7 1-306, looked up)
chain: B1 chain with A146K, Q212A

Experiments:
SEC = molecular target: the molecule itself; assay: SEC
crystal structure = molecular target: the molecule itself; assay: crystal structure

Row | Protein | binding result (SEC) | stoichiometry N (crystal structure)
1 | B1 | binds | 
2 | B2 | binds | 
3 | B3 | binds | 
4 | B4 |  | 2
5 | B5 | binds | 
6 | B6 | binds | 
7 | B7 | binds | 
8 | B8 | binds | 
9 | B9 | binds | 
10 | B10 | binds | 
11 | B11 | binds | 
12 | B12 | binds | 
